B1: library; numbered along this chain (parent)
chain: MAAAGGARLLRAASAVLGGPAGRWLHHAGSRAGSSGLLRNRGPGGSAEASRSLSVSARARSSSEDKITVHFINRDGETLTTKGKVGDSLLDVVVENNLDIDGFGACEGTLACSTCHLIFEDHIYEKLDAITDEENDMLDLAYGLTDRSRLGCQICLTKSMDNMTVRVPETVADARQSIDVGKTS

In the data set the parent is B1. Kind of data set: scaled log2 fold change in cell abundance, elesclomol vs control (0 = silent mean, 1 = nonsense mean) (scaled log2 ratio); higher = higher viability under elesclomol (loss of FDX1 cuproptosis function). As to conditions: glucose 10 mM.
[1] abbreviates: with ABC1 FDX1 KO, elesclomol 5 nM, 14 days.
[2] abbreviates: with HEK293T FDX1 KO, elesclomol 40 nM, 11 days.
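Also: variant abundance is its share of total variant reads in each endpoint sample, from next-generation sequencing of the integrated ORF PCR-amplified out of genomic DNA.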

D161A: the “scaled log2 fold change” value under setting [1] is -0.111.

For D161R, the “scaled log2 fold change” value under setting [1] turned out to be 0.243 and the “scaled log2 fold change” value under setting [2] was 0.406.

Turning to D161V, the “scaled log2 fold change” value is -0.562 under setting [1] and 0.103 under setting [2].

Regarding D161S, the “scaled log2 fold change” value is, setting by setting: under setting [1], 0.299; under setting [2], -0.0997.

With D161T, the “scaled log2 fold change” value is 0.262 under setting [1] and -0.0378 under setting [2].

For D161G, the “scaled log2 fold change” value under setting [1] was -0.198.

On to D161Y, for which the “scaled log2 fold change” value is 0.284 under setting [1] and 0.145 under setting [2].

With D161W, the “scaled log2 fold change” value by setting is: under setting [1], 0.197; under setting [2], -0.0327.

Consider D161E, for which the “scaled log2 fold change” value reads like this: under setting [1], -0.0246; under setting [2], 0.705.

With D161P, the “scaled log2 fold change” value under setting [1] is 0.586 and the “scaled log2 fold change” value under setting [2] was 0.0492.

As for D161Q, the “scaled log2 fold change” value under setting [1] turned out to be 0.0687.

As for D161N, the “scaled log2 fold change” value is, setting by setting: under setting [1], 0.064; under setting [2], -0.539.

For D161F, the “scaled log2 fold change” value is, setting by setting: under setting [1], 0.305; under setting [2], 0.236.

D161H: the “scaled log2 fold change” value was -0.161 under setting [1] and -0.464 under setting [2].

Regarding D161L, the “scaled log2 fold change” value under setting [1] came to 0.312 and the “scaled log2 fold change” value under setting [2] amounted to 0.16.

Consider D161I, for which the “scaled log2 fold change” value under setting [1] amounted to 0.0246 and the “scaled log2 fold change” value under setting [2] was -0.332.

For D161M, the “scaled log2 fold change” value under setting [1] is -0.0698 and the “scaled log2 fold change” value under setting [2] is -0.0785.

Turning to D161C, the “scaled log2 fold change” value is 0.35 under setting [1] and 0.607 under setting [2].

Turning to D161K, the “scaled log2 fold change” value amounted to 0.234 under setting [1] and 0.181 under setting [2].

As for T157Q, the “scaled log2 fold change” value under setting [1] came to 0.0955 and the “scaled log2 fold change” value under setting [2] is 1.04.

Regarding T157Y, the “scaled log2 fold change” value was 0.175 under setting [1] and -0.241 under setting [2].

Take T157L: the “scaled log2 fold change” value reads like this: under setting [1], -0.0209; under setting [2], -0.588.

On to T157V, for which the “scaled log2 fold change” value is -0.108 under setting [1] and -0.969 under setting [2].

Take T157C: the “scaled log2 fold change” value reads like this: under setting [1], 0.0208; under setting [2], 0.206.

For T157K, the “scaled log2 fold change” value under setting [1] was found to be 0.0573 and the “scaled log2 fold change” value under setting [2] was -0.19.

For the variant T157A, the “scaled log2 fold change” value came to 0.304 under setting [1] and 0.871 under setting [2].

On to T157I, for which the “scaled log2 fold change” value was -0.909 under setting [1] and -0.784 under setting [2].

Turning to T157E, the “scaled log2 fold change” value under setting [1] amounted to 0.0855 and the “scaled log2 fold change” value under setting [2] is -0.0584.

On to T157P, for which the “scaled log2 fold change” value runs as follows: under setting [1], 0.927; under setting [2], 0.296.

Regarding T157S, the “scaled log2 fold change” value is, setting by setting: under setting [1], 0.365; under setting [2], 0.742.

As for T157R, the “scaled log2 fold change” value runs as follows: under setting [1], 0.294; under setting [2], 0.0556.

For the variant T157D, the “scaled log2 fold change” value is, setting by setting: under setting [1], 0.102; under setting [2], -0.275.

As to T157M, the “scaled log2 fold change” value under setting [1] came to 0.046 and the “scaled log2 fold change” value under setting [2] turned out to be 0.00875.

On to T157H, for which the “scaled log2 fold change” value reads like this: under setting [1], -0.268; under setting [2], -0.000268.

With T157N, the “scaled log2 fold change” value under setting [1] is -0.181.

For T157F, the “scaled log2 fold change” value reads like this: under setting [1], 0.0938; under setting [2], 0.986.

In the case of T157G, the “scaled log2 fold change” value was -0.366 under setting [1] and 0.895 under setting [2].

Consider M160R, for which the “scaled log2 fold change” value was determined as 0.249 under setting [1] and 0.049 under setting [2].

Turning to M160V, the “scaled log2 fold change” value under setting [1] is -0.27.

On to M160Y, for which the “scaled log2 fold change” value amounted to 0.274 under setting [1] and 0.713 under setting [2].

Consider M160C, for which the “scaled log2 fold change” value under setting [1] was -0.675 and the “scaled log2 fold change” value under setting [2] was -0.515.

Regarding M160E, the “scaled log2 fold change” value under setting [1] stood at 0.143 and the “scaled log2 fold change” value under setting [2] was -0.299.

As for M160N, the “scaled log2 fold change” value was 0.245 under setting [1] and -0.0466 under setting [2].

On to M160H, for which the “scaled log2 fold change” value runs as follows: under setting [1], -0.251; under setting [2], 0.0298.

As to M160P, the “scaled log2 fold change” value by setting is: under setting [1], 1.06; under setting [2], 1.11.

On to M160L, for which the “scaled log2 fold change” value under setting [1] was -0.304.

For M160K, the “scaled log2 fold change” value by setting is: under setting [1], -0.0408; under setting [2], 1.28.

Regarding M160D, the “scaled log2 fold change” value reads like this: under setting [1], -0.132; under setting [2], 0.103.

With M160A, the “scaled log2 fold change” value by setting is: under setting [1], 0.233; under setting [2], -0.241.

As to M160F, the “scaled log2 fold change” value was 0.0868 under setting [1] and 0.149 under setting [2].

As to M160I, the “scaled log2 fold change” value amounted to 0.353 under setting [1] and 0.63 under setting [2].

As to M160Q, the “scaled log2 fold change” value reads like this: under setting [1], 0.0622; under setting [2], 0.682.

In the case of M160G, the “scaled log2 fold change” value reads like this: under setting [1], 0.381; under setting [2], 0.247.

Consider M160T, for which the “scaled log2 fold change” value under setting [1] worked out at 0.347 and the “scaled log2 fold change” value under setting [2] is 0.674.

For the variant M160W, the “scaled log2 fold change” value under setting [1] stood at 0.366 and the “scaled log2 fold change” value under setting [2] was -0.0391.

On to M160S, for which the “scaled log2 fold change” value turned out to be 0.278 under setting [1] and 0.0347 under setting [2].

In the case of L156R, the “scaled log2 fold change” value reads like this: under setting [1], 1.06; under setting [2], 1.1.

Consider L156E, for which the “scaled log2 fold change” value under setting [1] stood at 1.11 and the “scaled log2 fold change” value under setting [2] turned out to be 1.53.

For L156G, the “scaled log2 fold change” value came out at 0.709 under setting [1] and 0.904 under setting [2].

Take L156F: the “scaled log2 fold change” value reads like this: under setting [1], 0.599; under setting [2], -0.036.
